According to FireProtDB (doi:10.1016/j.jmb.2005.09.061):
Where “and” joins values, the source holds several entries; their conditions need not be identical. Equal values may be shown once.

B1: Alpha-lactalbumin, P00712 (parent)
chain: MMSFVSLLLVGILFHATQAEQLTKCEVFQKLKDLKDYGGVSLPEWVCTAFHTSGYDTQAIVQNNDSTEYGLFQINNKIWCKDDQNPHSRNICNISCDKFLDDDLTDDIVCAKKILDKVGINYWLAHKALCSEKLDQWLCEKL

Variants of: B1
Conditions: Capra hircus; pH 7; Thermal; CD; sodium cacodylate 50 mM; NaCl 50 mM; reversible: Yes; structure 1HFY; whole UniProt chain shown

| Variant | Tm | change of melting temperature, mutant - wild type (higher = more stable) | heat capacity change of unfolding [kcal/mol/K] | unfolding enthalpy (van 't Hoff) |
| --- | --- | --- | --- | --- |
| MMSFVSLLLVGILFHATQAEQLTKCEVFQKLKDLKDYGGVSLPEWVCTAFHTSGYDAQAIVQNNDSTEYGLFQINNKIWCKDDQNPHSRNICNISCDKFLDDDLTDDIVCAKKILDKVGINYWLAHKALCSEKLDQWLCEKL [T57A] | 59 °C and 54.1 °C | -6.8 °C and -4.9 °C | 1.8 | 68.8 kcal/mol and 62.5 kcal/mol |
